# T1: FZD5 CRD (Homo sapiens, UniProt Q13467)
# T1 construct: K29-T156; GPI anchor signal (C); expressed in transfected cells; host or cells: CHO cells, lentiviral pLenti-puro
# T1 sequence (Q13467 29-156): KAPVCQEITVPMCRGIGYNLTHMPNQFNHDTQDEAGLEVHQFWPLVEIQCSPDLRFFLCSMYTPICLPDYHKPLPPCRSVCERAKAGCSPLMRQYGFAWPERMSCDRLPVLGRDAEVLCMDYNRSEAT
# T2: FZD3 CRD (Homo sapiens, UniProt Q9NPG1)
# T2 construct: CRD of FZD1, FZD2, FZD3, FZD4, FZD5, FZD6, FZD7, FZD8, FZD9 or FZD10; GPI anchor signal (C); expressed in transfected cells; host or cells: CHO cells, lentiviral pLenti-puro
# T2 sequence (Q9NPG1 23-136 limits assumed): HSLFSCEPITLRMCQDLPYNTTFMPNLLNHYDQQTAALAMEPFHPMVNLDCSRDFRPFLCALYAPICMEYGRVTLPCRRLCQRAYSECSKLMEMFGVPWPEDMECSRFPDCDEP
# T3: FZD9 CRD (Homo sapiens, UniProt O00144)
# T3 construct: G35-A161; GPI anchor signal (C); expressed in transfected cells; host or cells: CHO cells, lentiviral pLenti-puro
# T3 sequence (O00144 35-161): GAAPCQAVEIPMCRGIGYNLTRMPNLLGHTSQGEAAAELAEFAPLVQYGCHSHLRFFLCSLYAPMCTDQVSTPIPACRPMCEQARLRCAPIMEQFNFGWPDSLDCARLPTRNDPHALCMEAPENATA
# T4: FZD4 CRD (Homo sapiens, UniProt Q9ULV1)
# T4 construct: E42-V167; GPI anchor signal (C); expressed in transfected cells; host or cells: CHO cells, lentiviral pLenti-puro
# T4 sequence (Q9ULV1 42-167): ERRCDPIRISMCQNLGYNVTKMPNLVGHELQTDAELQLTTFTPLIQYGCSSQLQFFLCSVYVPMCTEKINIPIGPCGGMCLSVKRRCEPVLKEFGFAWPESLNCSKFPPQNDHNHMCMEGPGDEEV
# T5: FZD8 CRD (Homo sapiens, UniProt Q9H461)
# T5 construct: K31-D155; GPI anchor signal (C); expressed in transfected cells; host or cells: CHO cells, lentiviral pLenti-puro
# T5 sequence (Q9H461 31-155): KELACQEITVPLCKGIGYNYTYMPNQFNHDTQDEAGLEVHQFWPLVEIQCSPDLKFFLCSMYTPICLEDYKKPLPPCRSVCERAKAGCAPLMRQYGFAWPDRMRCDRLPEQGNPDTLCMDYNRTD
# B1: Fab-2933: anti-FZD5 Fab with antibody variable region Fv-2933; CDR SEQ ID NOs: 35, 36, 72, 109, 148, 177 (antibody, V domains shown)
# VH: EVQLVESGGGLVQPGGSLRLSCAASGFNLYSSYMHWVRQAPGKGLEWVASIYSSYGYTSYADSVKGRFTISADTSKNTAYLQMNSLRAEDTAVYYCARTVRGSKKPYFSGWAMDYWGQGTLVTVSS
# VL: DIQMTQSPSSLSASVGDRVTITCRASQSVSSAVAWYQQKPGKAPKLLIYSASSLYSGVPSRFSGSRSGTDFTLTISSLQPEDFATYYCQQFWWYASWLFTFGQGTKVEIK
# B2: Fab-2932: anti-FZD5 Fab with antibody variable region Fv-2932; CDR SEQ ID NOs: 35, 36, 71, 108, 147, 153 (antibody, V domains shown)
# VH: EVQLVESGGGLVQPGGSLRLSCAASGFNISYSYMHWVRQAPGKGLEWVASIYSSYSSTSYADSVKGRFTISADTSKNTAYLQMNSLRAEDTAVYYCARGALDYWGQGTLVTVSS
# VL: DIQMTQSPSSLSASVGDRVTITCRASQSVSSAVAWYQQKPGKAPKLLIYSASSLYSGVPSRFSGSRSGTDFTLTISSLQPEDFATYYCQQWYGSFALITFGQGTKVEIK
# B3: Fab-2935: anti-FZD5 Fab with antibody variable region Fv-2935; CDR SEQ ID NOs: 35, 36, 74, 111, 150, 178 (antibody, V domains shown)
# VH: EVQLVESGGGLVQPGGSLRLSCAASGFNIYYYYIHWVRQAPGKGLEWVASIYPSSGSTSYADSVKGRFTISADTSKNTAYLQMNSLRAEDTAVYYCARAAFDYWGQGTLVTVSS
# VL: DIQMTQSPSSLSASVGDRVTITCRASQSVSSAVAWYQQKPGKAPKLLIYSASSLYSGVPSRFSGSRSGTDFTLTISSLQPEDFATYYCQQWYGGYALITFGQGTKVEIK
# B4: Fab-2936: anti-FZD5 Fab with antibody variable region Fv-2936; CDR SEQ ID NOs: 35, 36, 75, 112, 151, 179 (antibody, V domains shown)
# VH: EVQLVESGGGLVQPGGSLRLSCAASGFNISYYYMHWVRQAPGKGLEWVASIYSSSGSTSYADSVKGRFTISADTSKNTAYLQMNSLRAEDTAVYYCARAAMDYWGQGTLVTVSS
# VL: DIQMTQSPSSLSASVGDRVTITCRASQSVSSAVAWYQQKPGKAPKLLIYSASSLYSGVPSRFSGSRSGTDFTLTISSLQPEDFATYYCQQWYAASLITFGQGTKVEIK
# B5: Fab-2934: anti-FZD5 Fab with antibody variable region Fv-2934; CDR SEQ ID NOs: 35, 36, 73, 110, 149, 155 (antibody, V domains shown)
# VH: EVQLVESGGGLVQPGGSLRLSCAASGFNISYSYMHWVRQAPGKGLEWVASIYSSSGSTSYADSVKGRFTISADTSKNTAYLQMNSLRAEDTAVYYCARGAIDYWGQGTLVTVSS
# VL: DIQMTQSPSSLSASVGDRVTITCRASQSVSSAVAWYQQKPGKAPKLLIYSASSLYSGVPSRFSGSRSGTDFTLTISSLQPEDFATYYCQQWYHYGLITFGQGTKVEIK
# Assays:
# [1] = test system: CHO cells not expressing Frizzled CRD; experiment: Flow cytometry of anti-FZD5 Fab binding to CHO cells not expressing Frizzled CRD (background)
# Text: The binding of anti-FZD5 Fabs to cell surface-expressed Frizzled protein was further determined for each member of the Frizzled family via flow cytometry and immunofluorescence analysis of a panel of 10 CHO cell lines, each ectopically over-expressing the extracellular cysteine-rich domain (CRD) of a different Frizzled protein family member.
# [2] = target: T1, FZD5 CRD; experiment: Immunofluorescence of anti-FZD5 Fab binding to CHO cells overexpressing Frizzled CRD; set-up: key: −: no binding; +: very weak binder; ++: weak binder; +++: good binder; ++++: very good binder
# Outline: (§1)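 Using immunofluorescence plus flow cytometry, we examine Fab binding to surface CRDs of individual Frizzled receptors, each expressed on CHO cells as a myc-GPI fusion from a lentiviral vector.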
# [3] = target: T6, FZD2 CRD (Homo sapiens, UniProt Q14332); experiment: as above; set-up: key: −: no binding; +: very weak binder; ++: weak binder; +++: good binder; ++++: very good binder
# T6 construct: D35-P161; GPI anchor signal (C); expressed in transfected cells; host or cells: CHO cells, lentiviral pLenti-puro
# Outline: as §1
# [4] = target: T2, FZD3 CRD; experiment: as above; set-up: key: −: no binding; +: very weak binder; ++: weak binder; +++: good binder; ++++: very good binder
# Outline: as §1
# [5] = target: T7, FZD1 CRD (Homo sapiens, UniProt Q9UP38); experiment: as above; set-up: key: −: no binding; +: very weak binder; ++: weak binder; +++: good binder; ++++: very good binder
# T7 construct: D112-P238; GPI anchor signal (C); expressed in transfected cells; host or cells: CHO cells, lentiviral pLenti-puro
# Outline: as §1
# [6] = target: T3, FZD9 CRD; experiment: as above; set-up: key: −: no binding; +: very weak binder; ++: weak binder; +++: good binder; ++++: very good binder
# Outline: as §1
# [7] = target: T4, FZD4 CRD; experiment: as above; set-up: key: −: no binding; +: very weak binder; ++: weak binder; +++: good binder; ++++: very good binder
# Outline: as §1
# [8] = target: T5, FZD8 CRD; experiment: as above; set-up: key: −: no binding; +: very weak binder; ++: weak binder; +++: good binder; ++++: very good binder
# Outline: as §1
Molecule,"Median fluorescence, Frizzled CRD overexpressed on CHO cells: None [1]","Immunofluorescence binding, Frizzled CRD overexpressed on CHO cells: FZD5 [2]","Immunofluorescence binding, Frizzled CRD overexpressed on CHO cells: FZD2 [3]","Immunofluorescence binding, Frizzled CRD overexpressed on CHO cells: FZD3 [4]","Immunofluorescence binding, Frizzled CRD overexpressed on CHO cells: FZD1 [5]","Immunofluorescence binding, Frizzled CRD overexpressed on CHO cells: FZD9 [6]","Immunofluorescence binding, Frizzled CRD overexpressed on CHO cells: FZD4 [7]","Immunofluorescence binding, Frizzled CRD overexpressed on CHO cells: FZD8 [8]"
B1,3.92,++++,−,−,+,−,+++,+
B2,3.59,++++,−,−,−,−,−,+
B3,3.46,++++,−,−,−,−,−,+
B4,2.81,++++,−,−,−,−,−,+
B5,3.13,++++,−,−,−,−,−,+

# — patent publication US20210253718A1, “FRIZZLED5 PROTEIN-BINDING AGENTS” (Modmab Therapeutics Corporation, priority 2016, published 2021)
